Article PMC5976236

Assays:
[1] = target: Muc2 from colon of wild-type C57BL/6 mice (mouse (endogenous in C57BL/6 colon)) (UniProt Q80Z19); test: atomic force microscopy force spectroscopy; C-type lectins attached to the AFM tip via the PEG linker, mucin covalently attached to the glass slide; PBS; 1024 force curves
[2] = target: recombinant human galectin-3 (human) (UniProt P17931); test: atomic force microscopy force spectroscopy; Gal-3 attached to a slide, mDectin-2 or SIGN-R1 (untreated or PNGase F-treated) on the AFM tips; PBS
recombinant human galectin-3 (human), sequence (P17931 whole entry): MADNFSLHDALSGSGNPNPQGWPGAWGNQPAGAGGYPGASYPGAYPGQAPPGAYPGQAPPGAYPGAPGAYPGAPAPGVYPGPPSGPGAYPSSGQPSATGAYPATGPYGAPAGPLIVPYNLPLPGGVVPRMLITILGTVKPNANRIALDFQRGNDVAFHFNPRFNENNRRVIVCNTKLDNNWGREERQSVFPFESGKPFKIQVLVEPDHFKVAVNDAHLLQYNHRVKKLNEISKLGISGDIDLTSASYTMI

Muc2 from colon of wild-type C57BL/6 mice (mouse (endogenous in C57BL/6 colon)), sequence (Q80Z19 21-4576): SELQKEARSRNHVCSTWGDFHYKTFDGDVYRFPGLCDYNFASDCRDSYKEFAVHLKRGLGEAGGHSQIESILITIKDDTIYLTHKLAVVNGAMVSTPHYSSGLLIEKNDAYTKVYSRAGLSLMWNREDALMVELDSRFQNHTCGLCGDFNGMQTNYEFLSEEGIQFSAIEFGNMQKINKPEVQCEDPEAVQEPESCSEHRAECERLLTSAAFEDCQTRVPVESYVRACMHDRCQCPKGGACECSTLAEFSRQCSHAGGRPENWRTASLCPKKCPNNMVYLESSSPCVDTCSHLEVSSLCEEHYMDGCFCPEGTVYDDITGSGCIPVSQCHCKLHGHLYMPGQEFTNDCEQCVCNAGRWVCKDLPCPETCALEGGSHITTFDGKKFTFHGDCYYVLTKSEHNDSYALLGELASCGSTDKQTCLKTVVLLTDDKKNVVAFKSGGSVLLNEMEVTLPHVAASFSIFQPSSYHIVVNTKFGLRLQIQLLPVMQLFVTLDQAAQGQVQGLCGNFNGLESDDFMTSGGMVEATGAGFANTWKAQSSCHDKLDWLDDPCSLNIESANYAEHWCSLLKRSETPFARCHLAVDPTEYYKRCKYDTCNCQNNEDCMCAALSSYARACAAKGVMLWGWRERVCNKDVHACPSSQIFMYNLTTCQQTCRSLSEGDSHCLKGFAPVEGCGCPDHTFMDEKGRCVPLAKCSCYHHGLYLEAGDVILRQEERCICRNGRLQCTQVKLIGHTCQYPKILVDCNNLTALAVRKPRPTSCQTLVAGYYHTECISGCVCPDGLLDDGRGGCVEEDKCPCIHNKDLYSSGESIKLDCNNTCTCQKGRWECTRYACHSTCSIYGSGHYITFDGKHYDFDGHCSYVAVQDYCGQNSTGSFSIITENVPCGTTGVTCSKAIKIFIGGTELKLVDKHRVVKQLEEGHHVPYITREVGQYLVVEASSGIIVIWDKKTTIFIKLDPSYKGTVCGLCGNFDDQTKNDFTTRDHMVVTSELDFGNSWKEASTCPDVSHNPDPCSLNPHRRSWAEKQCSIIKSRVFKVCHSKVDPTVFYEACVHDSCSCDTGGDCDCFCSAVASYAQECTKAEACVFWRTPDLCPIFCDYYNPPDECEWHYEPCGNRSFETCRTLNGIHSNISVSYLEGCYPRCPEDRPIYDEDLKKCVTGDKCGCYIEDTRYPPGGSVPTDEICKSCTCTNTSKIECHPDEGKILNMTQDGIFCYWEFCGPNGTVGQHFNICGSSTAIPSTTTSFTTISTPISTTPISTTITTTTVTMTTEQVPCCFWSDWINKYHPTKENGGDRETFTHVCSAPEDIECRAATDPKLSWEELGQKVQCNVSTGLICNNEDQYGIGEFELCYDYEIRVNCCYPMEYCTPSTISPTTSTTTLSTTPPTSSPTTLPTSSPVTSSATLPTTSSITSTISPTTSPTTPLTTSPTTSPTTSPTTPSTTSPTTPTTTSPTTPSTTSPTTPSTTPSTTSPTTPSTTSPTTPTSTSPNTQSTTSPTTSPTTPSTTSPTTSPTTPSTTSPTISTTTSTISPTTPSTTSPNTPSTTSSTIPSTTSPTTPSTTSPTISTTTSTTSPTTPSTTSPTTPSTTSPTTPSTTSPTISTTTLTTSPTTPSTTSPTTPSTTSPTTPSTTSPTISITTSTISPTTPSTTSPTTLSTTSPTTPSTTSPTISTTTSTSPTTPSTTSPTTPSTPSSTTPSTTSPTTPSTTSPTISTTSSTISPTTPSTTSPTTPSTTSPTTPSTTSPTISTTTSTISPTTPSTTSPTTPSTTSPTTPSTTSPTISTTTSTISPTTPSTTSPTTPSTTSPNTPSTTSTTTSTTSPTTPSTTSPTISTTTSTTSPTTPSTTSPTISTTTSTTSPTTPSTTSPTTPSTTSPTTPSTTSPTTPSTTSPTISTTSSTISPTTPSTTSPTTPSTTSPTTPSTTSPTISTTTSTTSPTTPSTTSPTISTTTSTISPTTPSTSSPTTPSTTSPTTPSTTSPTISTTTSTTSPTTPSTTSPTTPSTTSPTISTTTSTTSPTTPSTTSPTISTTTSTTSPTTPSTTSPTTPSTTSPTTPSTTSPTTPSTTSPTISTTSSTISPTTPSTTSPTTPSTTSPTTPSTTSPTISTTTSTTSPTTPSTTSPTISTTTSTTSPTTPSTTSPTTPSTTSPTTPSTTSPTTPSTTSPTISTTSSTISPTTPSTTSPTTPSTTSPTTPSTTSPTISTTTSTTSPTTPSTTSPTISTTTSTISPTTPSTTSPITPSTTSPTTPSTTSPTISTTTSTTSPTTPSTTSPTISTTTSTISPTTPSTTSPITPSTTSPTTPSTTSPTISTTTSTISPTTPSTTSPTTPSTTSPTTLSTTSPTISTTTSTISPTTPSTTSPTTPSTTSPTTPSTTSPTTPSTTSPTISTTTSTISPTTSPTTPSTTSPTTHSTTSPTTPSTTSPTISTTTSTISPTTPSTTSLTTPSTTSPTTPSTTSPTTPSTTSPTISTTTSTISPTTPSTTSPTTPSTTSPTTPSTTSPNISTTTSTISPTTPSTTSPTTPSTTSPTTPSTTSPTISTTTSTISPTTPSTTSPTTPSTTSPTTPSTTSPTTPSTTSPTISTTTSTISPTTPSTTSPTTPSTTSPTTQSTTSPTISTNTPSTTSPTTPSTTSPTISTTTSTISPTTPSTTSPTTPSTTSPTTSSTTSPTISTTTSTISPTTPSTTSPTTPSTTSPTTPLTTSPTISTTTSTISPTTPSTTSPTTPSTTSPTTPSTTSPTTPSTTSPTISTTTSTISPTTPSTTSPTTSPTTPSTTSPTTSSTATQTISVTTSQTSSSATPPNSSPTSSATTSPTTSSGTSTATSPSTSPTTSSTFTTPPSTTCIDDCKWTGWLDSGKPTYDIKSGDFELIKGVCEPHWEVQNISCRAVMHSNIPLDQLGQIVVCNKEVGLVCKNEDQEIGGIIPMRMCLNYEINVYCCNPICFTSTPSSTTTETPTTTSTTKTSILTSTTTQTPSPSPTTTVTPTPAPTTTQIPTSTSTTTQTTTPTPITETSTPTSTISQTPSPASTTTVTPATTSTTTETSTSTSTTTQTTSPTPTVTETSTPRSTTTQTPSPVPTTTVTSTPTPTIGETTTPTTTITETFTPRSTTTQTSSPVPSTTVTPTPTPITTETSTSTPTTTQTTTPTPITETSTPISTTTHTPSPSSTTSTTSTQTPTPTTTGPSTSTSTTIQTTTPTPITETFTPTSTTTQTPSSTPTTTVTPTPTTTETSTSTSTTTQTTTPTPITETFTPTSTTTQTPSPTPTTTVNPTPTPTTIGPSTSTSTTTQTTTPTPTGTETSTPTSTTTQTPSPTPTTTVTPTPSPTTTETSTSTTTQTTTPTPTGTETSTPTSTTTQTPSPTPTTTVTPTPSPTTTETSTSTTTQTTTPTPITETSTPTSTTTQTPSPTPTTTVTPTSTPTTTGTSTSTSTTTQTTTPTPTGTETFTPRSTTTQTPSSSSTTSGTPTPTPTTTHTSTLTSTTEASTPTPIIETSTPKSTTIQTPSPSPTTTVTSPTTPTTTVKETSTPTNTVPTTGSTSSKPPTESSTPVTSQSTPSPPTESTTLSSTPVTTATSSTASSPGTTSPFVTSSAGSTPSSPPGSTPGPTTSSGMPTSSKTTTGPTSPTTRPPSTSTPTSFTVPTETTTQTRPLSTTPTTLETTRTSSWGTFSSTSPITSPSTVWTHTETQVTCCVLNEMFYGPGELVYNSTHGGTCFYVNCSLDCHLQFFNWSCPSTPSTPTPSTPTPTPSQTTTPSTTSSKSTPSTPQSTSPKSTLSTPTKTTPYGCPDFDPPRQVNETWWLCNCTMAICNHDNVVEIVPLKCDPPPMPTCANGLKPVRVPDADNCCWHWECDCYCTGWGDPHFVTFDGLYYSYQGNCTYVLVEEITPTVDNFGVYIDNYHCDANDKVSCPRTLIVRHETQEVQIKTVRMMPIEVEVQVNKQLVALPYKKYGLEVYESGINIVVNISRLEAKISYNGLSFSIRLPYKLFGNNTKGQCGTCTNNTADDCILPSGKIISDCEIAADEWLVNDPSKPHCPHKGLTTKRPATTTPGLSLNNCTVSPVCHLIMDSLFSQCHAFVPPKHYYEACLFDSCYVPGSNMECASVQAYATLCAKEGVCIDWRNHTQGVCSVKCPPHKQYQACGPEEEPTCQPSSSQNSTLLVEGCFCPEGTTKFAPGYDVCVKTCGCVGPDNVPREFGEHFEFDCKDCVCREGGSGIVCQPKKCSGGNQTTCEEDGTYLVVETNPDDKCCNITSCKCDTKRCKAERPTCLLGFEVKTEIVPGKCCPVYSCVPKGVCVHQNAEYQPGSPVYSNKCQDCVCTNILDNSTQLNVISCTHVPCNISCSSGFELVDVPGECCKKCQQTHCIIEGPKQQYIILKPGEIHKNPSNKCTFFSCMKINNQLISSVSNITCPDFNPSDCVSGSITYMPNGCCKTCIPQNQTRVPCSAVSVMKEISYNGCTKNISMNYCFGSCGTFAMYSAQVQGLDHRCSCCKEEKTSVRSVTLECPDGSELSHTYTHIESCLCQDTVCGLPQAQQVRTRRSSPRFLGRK

adhesion force of some binding events [1]: 3210 pN
modal value of adhesions [1]: 292 pN
modal value of adhesion [2]: 17.1 pN
Substance: recombinant murine SIGN-R1 (from UniProt Q8CJ91 1-325) (receptor)
